Results on 2 molecules are retold here after patent US20050260575, “Method for identifying substances useful for treating inflammation using the response element to the ikbalpha ror receptor” (published 2005).

Series [1] addresses T1, RORα1 (Homo sapiens, UniProt P35398 P35398:1-523).
T1 sequence: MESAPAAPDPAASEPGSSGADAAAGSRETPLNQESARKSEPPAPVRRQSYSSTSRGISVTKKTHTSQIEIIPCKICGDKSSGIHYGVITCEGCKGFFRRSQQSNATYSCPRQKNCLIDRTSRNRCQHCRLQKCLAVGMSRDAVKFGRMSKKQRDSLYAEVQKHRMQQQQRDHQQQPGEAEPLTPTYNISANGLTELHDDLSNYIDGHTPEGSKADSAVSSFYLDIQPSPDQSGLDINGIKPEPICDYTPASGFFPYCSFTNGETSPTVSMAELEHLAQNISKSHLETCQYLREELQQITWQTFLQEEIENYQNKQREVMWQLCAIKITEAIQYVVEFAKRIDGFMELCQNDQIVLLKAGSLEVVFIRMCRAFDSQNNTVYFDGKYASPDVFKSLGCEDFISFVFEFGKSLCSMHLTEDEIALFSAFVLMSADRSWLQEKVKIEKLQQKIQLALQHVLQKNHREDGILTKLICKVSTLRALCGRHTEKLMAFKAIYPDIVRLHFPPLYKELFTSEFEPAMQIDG
As to the kind of experiment: competition; unlabelled mutated competitor 1x-100x used as specificity control; full oligo sequence not stated, SEQ 15 matches the ACCTCA mutation. To be noted: tags: TNT-T7 Promega; hRORα1. How it is done:
(§1) FIG. 6C depicts the gel shift experiments conducted by using the in vitro translated RORαl protein (TNT-T7 Promega) and an IκBα-RORE labelled probe. […] To […] the mobility of the complex, 1 μl of RORα1 antibody was added to the binding reaction (S: shift of the complex; SS: super-shift of the complex; FP: unbound probe).
(§2) It has been shown that the negative dominant RORαΔ235 missing the LBD domain inhibits RORα1-induced transcription by competing with the same DNA binding domain (Mc Broom, L. D. B., Flock, G. and Giguère, V., Mol. Cell. Biol. 1995, 15: 796-808). The effect of this mutant on the promoter under the control of the IκBα gene RORE inducible by RORα1 was tested. Cotransfection with RORαΔ235 abolished the effect of RORα1 (FIG. 6B). […] Finally, binding of RORα1 to its response element RORE was checked by gel shift assays, using in vitro translated RORα1 protein.

In series [2] the target is T1, RORα1. As to the kind of experiment: EMSA; supershift with RORα1 antibody; native competitor 1x-100x; exact probe length not stated. Particulars: tags: TNT-T7 Promega; hRORα1; label: labelled probe. As for the experimental part: as §1, §2
In general terms: In EMSA bound probe runs differently from free probe, usually more slowly.

B1: IκBα-RORE mutant (dsDNA)
DNA 1: GAGCACAATGTACCTCAGATAG
DNA 2: CTATCTGAGGTACATTGTGCTC
With B1, the binding result with RORα1 [1] is given as “no binding”.

B2: IκBα-RORE (dsDNA)
DNA 1: GAGCACAATGTAGGTCAGATAG
DNA 2: CTATCTGACCTACATTGTGCTC
Turning to B2, the binding result with RORα1 [2] is “binds”.
